The supplement of paper PMC9732359
± gives the uncertainty stated by the source.

Assay: protein stability index of a GFP-peptide fusion (yeast GPS) (PSI 1-4); higher = more stable; sorted into four equal gates, so the index is relative within each strain
Summary of the method: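 Sequencing reads from sorted gates were used to score each peptide. The library consisted of tiled 17-residue yeast protein peptides fused downstream of GFP on a Cherry-expressing plasmid, pooled and carried in yeast. Mid-log cultures in leucine-free medium were split into four equal gates by GFP/Cherry ratio, and each gate's plasmids were PCR-amplified and Illumina-sequenced. The protein stability index adds up, over all gates, the read frequency multiplied by the gate number.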

Row | Sequence | protein stability index (doa10∆) | protein stability index (pdr5∆) | protein stability index (san1∆) | protein stability index (ubr1∆)
1 | AVEQLAGCKIDNVDDIG [YDL088C/ASM4] | 2.86 ± 0.075 | 2.64 ± 0.071 | 2.56 ± 0.08 | 2.61 ± 0.047
2 | DLTGSEPIKEIIDNWEK [FAS1] |  | 2.79 ± 0.15 |  | 3.07 ± 0.16
3 | TKRVEKPQLKFKSPIDN [RRP6] | 2.88 ± 0.052 | 3.03 ± 0.061 | 3.02 ± 0.039 | 3.137 ± 0.03
4 | SGYNQEDSMIMNQSSID [RPB2] | 2.46 ± 0.11 | 2.67 ± 0.12 |  | 2.84 ± 0.067
5 | KNSSQLLNEWSHNVDEL [RPN5] | 2.75 ± 0.057 | 2.81 ± 0.05 | 2.9 ± 0.045 | 2.64 ± 0.049
6 | VLMETKNTQSPQTPLVE [SNU114] | 2.95 ± 0.16 | 2.93 ± 0.12 | 2.67 ± 0.087 | 2.96 ± 0.11
7 | DDKYGRKFALEKLYIFY [SRP72] | 2.71 ± 0.076 | 2.82 ± 0.081 | 2.4 ± 0.061 | 2.4 ± 0.055
8 | LGSLTVEDYLSSVTSDS [RPC82] | 2.95 ± 0.11 | 3.02 ± 0.076 | 2.19 ± 0.22 | 3.2 ± 0.074
9 | LLSLINSTHLLPLQPIE [SNF12] | 2.34 ± 0.053 | 2.46 ± 0.05 | 3.04 ± 0.052 | 2.4 ± 0.04
10 | DLCDVVESKFTEKIKSM [RPC19] | 3.43 ± 0.2 | 2.9 ± 0.11 | 3.33 ± 0.1 | 3.44 ± 0.077
11 | NNYPNVELTYSLNNSDS [BRR2] | 2.99 ± 0.14 | 2.42 ± 0.18 |  | 
12 | NQNFSLTFQPQQQTNAL [GRR1] | 2.95 ± 0.065 | 3.2 ± 0.061 | 3.02 ± 0.067 | 2.94 ± 0.057
13 | FDEKTIEEMLEIISGYA [RPC17] | 1.36 ± 0.082 | 2.69 ± 0.14 | 2.07 ± 0.14 | 1.75 ± 0.09
14 | NKANIQALIHGLNRHYY [RPN11] | 2.12 ± 0.082 | 2.52 ± 0.073 | 2.21 ± 0.095 | 2.37 ± 0.073
15 | KVVNFWLLHNGFSTGIG [RPO21] | 3.17 ± 0.16 | 2.25 ± 0.1 | 2.51 ± 0.13 | 1.37 ± 0.094
16 | MTDIWNTLIPESSLTIS [ECM29] | 2.22 ± 0.064 | 2.46 ± 0.054 | 2.14 ± 0.1 | 2.87 ± 0.058
17 | SVAEVFQKAQGSYAGHR [YCG1] | 1.9 ± 0.11 | 1.38 ± 0.18 | 1.65 ± 0.24 | 1.5 ± 0.072
18 | FKKTLRSRISSPHGLIN [SRB4] | 2.09 ± 0.049 | 2.15 ± 0.056 | 2.53 ± 0.065 | 2.15 ± 0.042
19 | FKQKLNELLKCKDDVQL [MTW1] | 2.93 ± 0.054 | 2.96 ± 0.049 | 2.87 ± 0.036 | 3 ± 0.039
20 | VRIDKALELDDTVVSRV [ECM29] | 2.92 ± 0.11 | 2.91 ± 0.15 |  | 3.13 ± 0.097
21 | IVEADEKKGIVQASVTS [RET1] | 2.66 ± 0.15 | 2.6 ± 0.11 |  | 1.7 ± 0.086
22 | KLVLAARIIAAIPNPED [RPS0A] | 1.71 ± 0.074 | 2.11 ± 0.11 | 2.31 ± 0.099 | 2.5 ± 0.14
23 | VLMGKNTMVRRAIRGFL [RPP0] | 3.27 ± 0.26 |  | 3.34 ± 0.17 | 
24 | EIEQLDQYIQKQVQISH [YGL172W/NUP49] | 2.91 ± 0.056 | 3.11 ± 0.05 | 2.75 ± 0.073 | 2.87 ± 0.059
25 | SVQDLGGSATARHKKKV [YML031W/NDC1] | 2.7 ± 0.12 | 1.75 ± 0.069 | 1.57 ± 0.21 | 2.05 ± 0.057

Row | Sequence | protein stability index (doa10∆) | protein stability index (pdr5∆) | protein stability index (san1∆) | protein stability index (ubr1∆)
26 | EAFNDGNENFEDFDVEH [RPO26] | 2.97 ± 0.079 | 3.15 ± 0.086 | 2.92 ± 0.085 | 3.21 ± 0.079
27 | QEQLKNVKNDVSFNDSQ [YIL149C/MLP2] | 3.27 ± 0.061 | 3.5 ± 0.066 | 3.08 ± 0.083 | 3.31 ± 0.053
28 | VELLDSNDRVNPLIELT [ITC1] | 3.58 ± 0.11 | 2.5 ± 0.11 | 3.28 ± 0.075 | 3.02 ± 0.069
29 | DDKVSVVEKEKIESLAG [UBP6] | 3.31 ± 0.2 | 2.84 ± 0.24 | 2.89 ± 0.17 | 3.37 ± 0.14
30 | DPSGSYFPWKATAIGKG [PRE8] | 2.93 ± 0.1 | 2.68 ± 0.11 | 2.82 ± 0.077 | 3.13 ± 0.075
31 | NRPDNKNAQYHLLVKQG [RPN7] | 2.86 ± 0.056 | 2.58 ± 0.053 | 2.79 ± 0.05 | 2.78 ± 0.036
32 | QNISPVYSVDPLEKITD [PRP8] | 2.94 ± 0.083 | 2.9 ± 0.084 | 2.86 ± 0.054 | 2.85 ± 0.079
33 | TAFNKTRGPFHFRAPSR [RPL16B] | 2.95 ± 0.09 | 3.14 ± 0.068 | 2.59 ± 0.066 | 3 ± 0.066
34 | ARVKAFDRHCNMVLENV [SMD2] | 1.53 ± 0.091 | 2.3 ± 0.087 | 1.39 ± 0.21 | 1.87 ± 0.085
35 | GKASLFAQGKRRYDRKQ [RPL42A] | 3.28 ± 0.11 | 3.09 ± 0.1 | 3.4 ± 0.088 | 3.4 ± 0.072
36 | YYVGQVMRNNESTETGY [DIS3] | 3.21 ± 0.069 | 3.19 ± 0.092 | 3.18 ± 0.055 | 3.23 ± 0.064
37 | NHGGSLGKYDLTVIEKL [SRP68] |  |  | 3.53 ± 0.14 | 3.41 ± 0.29
38 | FLPRKRAASIRARVKAF [RPL3] | 1.16 ± 0.045 | 1.18 ± 0.064 | 1.15 ± 0.11 | 1.17 ± 0.051
39 | SYRGVDLEKLLEMSTED [RPS15] | 2.76 ± 0.14 | 2.86 ± 0.12 | 2.27 ± 0.2 | 3.19 ± 0.083
40 | LPSDRCSKAMGDLASLV [RPP1] |  |  | 3.15 ± 0.12 | 
41 | IDGKTVSYKDYSIFLEN [SMC1] | 2.72 ± 0.062 | 3.07 ± 0.057 | 2.85 ± 0.061 | 2.89 ± 0.046
42 | CFVLGIASMSTVRASSL [SMC2] | 1.51 ± 0.056 | 1.86 ± 0.055 | 1.83 ± 0.072 | 1.94 ± 0.065
43 | LMRTFLYTLAQETEGTN [SIR3] | 2.63 ± 0.12 | 2.63 ± 0.098 |  | 2.35 ± 0.11
44 | LSTTPTKSNRRVSHSDT [SIR4] |  | 3.06 ± 0.26 | 3.33 ± 0.088 | 3.25 ± 0.2
45 | SGRTVISPDPNLSIDEV [RPO31] | 2.4 ± 0.063 | 1.97 ± 0.06 | 2.03 ± 0.099 | 1.92 ± 0.057
46 | RSKSSHKNERRVLEIQT [SKI6] | 3.22 ± 0.097 | 3.35 ± 0.087 | 3.23 ± 0.084 | 3.37 ± 0.061
47 | RIMEKSVILSVISMFVL [YML031W/NDC1] | 1.31 ± 0.14 | 1.44 ± 0.1 | 1.17 ± 0.11 | 1.12 ± 0.049
48 | ENIEPLDPINLPLDSQD [PRP8] | 2.87 ± 0.078 | 2.97 ± 0.089 | 2.49 ± 0.11 | 3.04 ± 0.067
49 | VITLLNNSSITLRCSVV [YCS4] | 2.04 ± 0.06 | 1.2 ± 0.062 | 1.21 ± 0.12 | 1.16 ± 0.051
50 | FPRDGKAPEAEQVLSAA [RPL13B] | 3.3 ± 0.093 | 2.9 ± 0.086 | 2.9 ± 0.069 | 3 ± 0.045
